Article PMC12102759

B1: PAIP1 peptide 126-141 (Polyadenylate-binding protein-interacting protein 1), 16-mer library wild type / PABPC1 PABC (PABPC1 PABC domain, residues 544-623) (parent)
chain 1: SKLSVNAPEFYPSGYS
chain 2: PLTASMLASAPPQEQKQMLGERLFPLIQAMHPTLAGKITGMLLEIDNSELLHMLESPESLRSKVDEAVAVLQAHQAKEAA
B2: PEX5 peptide 238-253 (Peroxisomal targeting signal 1 receptor), 16-mer library wild type / PEX14 Pex14 (PEX14 PEX14, residues 16-84) (parent)
chain 1: AQAEQWAAEFIQQQGT
chain 2: TPGSENVLPREPLIATAVKFLQNSRVRQSPLATRRAFLKKKGLTDEEIDMAFQQSGTAADEPSSLGPAT

Variants of: B1
Test: proteomic peptide phage display deep mutational scan (ProP-PD DMS): M13 P8 16-mer library selected against immobilised GST-tagged bait for four days (rounds), NGS of the eluted pools per day and pseudo-replica
Conditions: with PABPC1 PABC (PABPC1 PABC domain, residues 544-623); bait immobilised on MaxiSorp plates (10 µg), library pre-cleared on GST, 2 h binding at 4 °C, five washes; one round per day, days 1-4; value from days 2 and 3; keep out of graded; scale: average fractional NGS count over selection days 2 and 3

Screen value, by site and new letter:
chain 1 V5: P 0.00187 | H 0.000797 | Y 0 | K 0.000215 | R 0.000262 | S 0.00056 | G 9.64e-06 | L 0.000898 | M 0.000169 | A 0.00035 | Q 0.00077 | N 0.000152
chain 1 S4: V 9.02e-05 | P 0.000535 | Y 0.000225 | Q 0.00694 | R 0.000365 | T 0.000487
chain 1 S13: L 0.000235 | D 0 | Q 0 | G 4.28e-05 | N 0.00287 | M 0.000419 | I 0.000936 | E 0.000161 | H 0.000367 | V 0.000104 | P 0 | Y 0.00035 | F 0.000556
chain 1 Y15: R 0.00115 | F 0.000589 | I 7.69e-05 | Q 0.000411 | W 0.000396 | T 0.000348 | D 0.000552 | M 4.17e-05 | V 0.000741 | A 0.00116 | L 0.000221 | E 7.22e-05 | K 0.00083 | H 0.000264 | N 0.000304 | S 0.00124
chain 1 Y11: Q 0.00111 | L 0.00117 | F 0.000586 | H 0.000612 | N 0.000309 | S 0.000332 | D 0.000603 | T 0.000142 | I 0.000574 | M 0.00123 | E 0.00111 | R 0.000552 | K 0.000481 | V 0.00109 | W 0.000643 | A 0.000962 | G 0.000528

Variants of: B2
Test: as above
Conditions: with PEX14 Pex14 (PEX14 PEX14, residues 16-84); bait immobilised on MaxiSorp plates (10 µg), library pre-cleared on GST, 2 h binding at 4 °C, five washes; one round per day, days 1-4; value from days 2 and 3; keep out of graded; scale: average fractional NGS count over selection days 2 and 3

Screen value of substitutions, site by site:
chain 1 Q5: A 0.000195 | I 7.71e-05 | F 0 | N 9.07e-05 | K 0 | E 0 | T 0.00028 | S 0.000207 | H 0.000302 | W 0
chain 1 A8: F 0.00013 | R 0.000559 | M 0.0014 | D 0 | S 0.000444 | L 0.00137 | Q 0.00013 | W 0.00148 | P 0 | V 0.00138 | G 0.00272
chain 1 F10: S 0.000175 | W 0.00148 | Y 0.000488 | I 0.000137 | Q 0.000673 | H 0.014
chain 1 G15: W 0.000703 | Y 0 | I 0 | D 0.000327 | V 0.000135 | K 0 | R 0.000288 | S 0.000212
chain 1 Q2: N 7.71e-05 | T 0.000198 | P 0.00113 | A 0 | R 7.71e-05 | S 0.000758 | E 0
chain 1 Q12: F 0.000147 | A 0 | K 0.000341 | G 0.000368 | E 0 | L 0.000406
chain 1 E4: Y 0.000168 | A 0.000155 | W 0.00183 | K 0.00104 | G 0.00183 | M 0.000893 | I 0.000318 | V 0
chain 1 A3: T 0.000152 | N 0.00244 | D 0.000241 | V 0.000366 | L 0 | Y 0.000443 | M 0.000674 | E 0.000385 | G 0.000791 | P 0.000153 | W 0 | S 0.000376 | I 0
chain 1 A7: R 0.00151 | H 0.00597 | F 0.000286 | N 0 | Y 0.00359 | D 0 | V 0 | L 0.00129 | S 0.00111 | I 0.000152 | G 0.00166
chain 1 E9: T 0.00204 | Q 0.000716 | A 0.00516 | G 0.000159 | D 0.00183 | K 0.0012 | H 0.0023 | I 0 | S 0.000566 | M 0.000215
chain 1 I11: Q 0.00134 | T 0.000576 | K 0.000266 | D 0.00263 | H 0.00108 | G 0.000289 | W 0 | S 0.000456 | P 0.00284 | V 0 | F 0.000739 | E 0.00192 | Y 0.000717
